First the molecules themselves.
B1: CPEB3 Ribozyme (parent)
chain: UAACAGGGGGCCACAGCAGAAGCGUUCACGUCGCAGCCCCUGUCAGAUUCUGGUGAAUCUGCGAAUUCUGCUGUAUAUCUC

The variants in this series derive from B1. Briefly: self-cleavage, relative activity (ratio to wild type); higher = more cleavage; in vitro, sequencing. In a few lines: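 CPEB3 self-cleaving ribozyme mutant libraries were made by rounds of error-prone PCR, barcoded, and transcribed in vitro with T7 RNA polymerase for 5 hours at 37°C. Cleavage occurred during transcription and a 15 min DNase I step before EDTA stop. RNAs were reverse transcribed with template switching and Illumina-sequenced, with DNA sequencing mapping barcodes to variants. Relative activity is the variant's cleaved/total read fraction divided by wild type's (minimum 5 reads), averaged across three batches.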
For A21G G61U, the self-cleavage was 0.34.
The value for A21G G61A was 0.2; that for A21C U49G was 0.11; that for A21C U78C was 0.37.
The value for A21G U25A was 0.24.
For A21G U25G the value was 0.34.
As for A21G U25C, the self-cleavage was found to be 0.29.
The value for A20G U69A was 0.34.
For A20G U69C, the self-cleavage turned out to be 0.5.
The value for A20G U69G was 0.42; that for A20U U72A was 0.25; that for A20U U72G was 0.13.
The value for A20U U72C was 0.34; that for A20U C34U was 0.34.
The value for A20U C81U was 0.32; that for A20G U76C was 0.92; that for A20G U76G was 0.99.
For A20G U76A, the self-cleavage was determined as 1.03.
For A20U C39G, the self-cleavage stood at 0.27.
The value for A20U C39A was 0.21; that for A21G G30A was 0.32; that for A21G G30U was 0.21.
For A21G G30C the value was 0.15; for A20U G24C, 0.4; for A20U G24A, 0.09.
For A20U G24U the value was 0.08; for A21G G22A, 0.17; for A21G U54C, 0.53.
In the case of A21G U54G, the self-cleavage turned out to be 0.4.
The value for A21G U54A was 0.71.
As for A20U C29U, the self-cleavage was found to be 0.15.
The value for A21G G42U was 0.37.
For A21G G42A the value was 0.25.
The value for A20U was 0.33.
For A21G G46A, the self-cleavage came to 0.42.
Regarding A21G G46U, the self-cleavage stood at 0.36.
For A21G G46C the value was 0.18.
For A20U U26A the value was 0.34.
The value for A20U U26C was 0.27.
With A21C U51A, the self-cleavage was found to be 0.15.
The value for A21C U51C was 0.19; that for A21G C27U was 0.18.
The value for A21G C27A was 0.14.
Regarding A21C A35G, the self-cleavage is 0.39.
The value for A21C C71G was 0.11.
Take A21C C71A: the self-cleavage came out at 0.09.
For A21G C68U the value was 0.43; for A21G C68A, 0.17.
As for A21G C68G, the self-cleavage was 0.2.
As to A20U U60G, the self-cleavage came to 0.21.
As to A20U U60A, the self-cleavage turned out to be 0.41.
For A20U U60C the value was 0.19; for A20G U74C, 1.17; for A20G U74A, 1.19.
Regarding A20G U74G, the self-cleavage stood at 1.17.
The value for A20U A75U was 0.28.
The value for A20U A75G was 0.2.
For A20U U48A the value was 0.14; for A20U U48C, 0.29; for A21C A47G, 0.3.
A20U G42U: the self-cleavage came out at 0.13.
For A20U G42A the value was 0.64.
On to A21G A64C, for which the self-cleavage was found to be 0.37.
With A21G A64U, the self-cleavage is 0.26.
Regarding A21G A64G, the self-cleavage stood at 0.42.
As to A20U C32A, the self-cleavage amounted to 0.18.
For A20U C32U the value was 0.3.
The value for A21G G73A was 1.21; that for A21G C29U was 0.28.
For A21G U76A the value was 0.55; for A21G U76C, 0.63; for A21G U76G, 0.66.
A20U U25A: the self-cleavage turned out to be 0.26.
For A20U U25G the value was 0.15; for A20U U25C, 0.31.
The value for A20U A65G was 0.2; that for A20U A65C was 0.1.
The value for A21G U69G was 0.33.
For A21G U69C, the self-cleavage was 0.27.
Consider A21G U69A, for which the self-cleavage stood at 0.27.
The value for A20U C40A was 0.23; that for A20U C40U was 0.34.
The value for A20U C40G was 0.27; that for A21G U51A was 0.64; that for A21G U51G was 0.72.
In the case of A21G U51C, the self-cleavage was 0.6.
As to A21G G36U, the self-cleavage came out at 0.07.
The value for A21G G36C was 0.24; that for A20U C62U was 0.15.
Regarding A20U C79G, the self-cleavage stood at 0.37.
The value for A20U C27U was 0.18; that for A20U C27A was 0.27; that for A20U C27G was 0.19.
Regarding A21G A65U, the self-cleavage was determined as 0.24.
A21G A65G: the self-cleavage came out at 0.28.
As to A21G A65C, the self-cleavage came out at 0.12.
The value for A20U G70A was 0.17; that for A20U G70U was 0.15; that for A21G G70A was 0.22.
Turning to A21G U48G, the self-cleavage is 0.34.
The value for A21G U48C was 0.3; that for A21G U48A was 0.35.
Regarding A21G U43A, the self-cleavage was 0.75.
The value for A21G U43G was 0.14.
The value for A21G U43C was 0.33.
For A21G C40U the value was 0.46; for A21G C40A, 0.26; for A20U U69C, 0.15.
In the case of A20U U69A, the self-cleavage is 0.22.
The value for A20U U69G was 0.21; that for A20U U80C was 0.37.
On to A20U U80A, for which the self-cleavage was 0.45.
The value for A21C U76A was 0.1.
The value for A21G A35G was 1.16; that for A21G A35C was 0.13.
For the variant A21G A35U, the self-cleavage is 0.27.
With A21C G73A, the self-cleavage was found to be 0.35.
For A20U G73A the value was 0.67.
For A20U A57G the value was 0.23; for A20U A57U, 0.58.
The value for A21C G46A was 0.37; that for A21G U41C was 0.66; that for A21G U41A was 0.3.
As for A21G U41G, the self-cleavage worked out at 0.29.
In the case of A20U U78A, the self-cleavage was 0.43.
The value for A20U U78C was 0.32; that for A20U U78G was 0.26; that for A21C U41C was 0.13.
For A21C A45G the value was 0.41.
For A21C A45U the value was 0.13.
As to A21C U58A, the self-cleavage is 0.16.
On to A20U G53A, for which the self-cleavage was found to be 0.28.
The value for A21G C62A was 0.2; that for A21G C62U was 0.19; that for A21G C62G was 0.22.
The value for A21G C32U was 0.22; that for A21G C32G was 0.23; that for A21G C32A was 0.23.
For A21G G63U the value was 0.61; for A21G U58A, 0.29.
Take A21G U58C: the self-cleavage came to 0.31.
For A21G U58G the value was 0.39.
Take A20U U67A: the self-cleavage was determined as 1.16.
The value for A20U U67G was 0.44.
The value for A20U U67C was 0.22; that for A20U G33C was 0.15; that for A21G C34G was 0.2.
With A20U G63A, the self-cleavage came out at 0.19.
For A20U U58C the value was 0.28; for A20U A77U, 0.28; for A20U A77C, 0.25.
For A20U A77G the value was 0.39; for A21G A28C, 0.3.
Turning to A21G A28G, the self-cleavage amounted to 0.35.
For A21G A28U the value was 0.38.
In the case of A20U U74A, the self-cleavage amounted to 0.54.
Take A20U U74C: the self-cleavage is 0.33.
Turning to A20U U74G, the self-cleavage is 0.55.
Take A21C A65G: the self-cleavage turned out to be 0.34.
Take A20U U43A: the self-cleavage amounted to 0.45.
The value for A20U U43C was 0.29.
The value for A20U U76C was 0.36.
Take A20U U76A: the self-cleavage worked out at 0.25.
A21G C44U: the self-cleavage was 0.26.
The value for A21G C44A was 0.18; that for A20U A35U was 0.22.
With A20U A35G, the self-cleavage was found to be 0.87.

(Values after the RNAGym collection of RNA variant scans (doi:10.1093/nar/gkz1192).)
